In the supplement of paper PMC7877785:
± gives the uncertainty stated by the source.

Assay: self-splicing fitness, log relative to wild type (ln ratio); higher = more splicing; Tetrahymena group I intron in knt gene, E. coli kanamycin selection, DiMSum; sequences stand for … in CUCUCU…GGAGGGAAAAGUUAUCAGGCAUGCACCUGGUAGCUAGUCUUUAAACCAAUAGAUUGCAUCGGUUUAAAAGGCAAGACCGUCAAAUUGCGGGAAAGGGGUCAACAGCCGUUCAGUACCAAGUCUCAGGGGAAACUUUGAGAUGGCCUUGCAAAGGGUAUGGUAAUAAGCUGACGGACAUGGUCCUAACCACGCAGCCAAGUCCUAAGUCAACAGAUCUUCUGUUGAUAUGGAUGCAGUUCACAGACUAAAUGUCGGUCGGGGAAGAUGUAUUCUUCUCAUAAGAUAUAGUCGGACCUCUCCUUAAUGGGAGCUAGCGGAUGAAGUGAUGCAACACUGGAGCCGCUGGGAACUAAUUUGUAUGCGAAAGUAUAUUGAUUAGUUUUGGAGUACUCGUGGUCG
How it was run: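 A randomised library covering all eight P1ex-region intron nucleotides was built with the intron in the knt kanamycin-resistance gene on pET-22b(+) and held in E. coli BL21(DE3). Cells were grown overnight at 37°C or 30°C on LB agar, with or without 25 μg/mL kanamycin, plus 100 μg/mL carbenicillin, 50 μM IPTG and 0.2% rhamnose, and pooled colonies were amplicon-sequenced on an Illumina HiSeq 2500. DiMSum fitness is the error-weighted combination of wild-type-normalised replicate fold changes, kanamycin versus none.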

Sequence	self-splicing fitness (ln) (30 °C)	self-splicing fitness (ln) (37 °C)
GUGCAGCAAUAUUACGCCUA	-1.29 ± 0.24	0.608 ± 0.25
UGUCAGCAAUAUUACGAAUG	0.0484 ± 0.12	0.565 ± 0.12
CUUAAGCAAUAUUACGGUAG	-1.58 ± 0.12	-0.559 ± 0.12
UUACAGCAAUAUUACGGGGA	-0.473 ± 0.076	-0.871 ± 0.089
CCGCAGCAAUAUUACGAACU	-1.92 ± 0.17	–
GGCGAGCAAUAUUACGACUG	-0.978 ± 0.24	-0.589 ± 0.29
UGCUAGCAAUAUUACGAAAA	-2.16 ± 0.15	-1.72 ± 0.15
GAAAAGCAAUAUUACGUAGU	-2.02 ± 0.077	-1.75 ± 0.13
CUGCAGCAAUAUUACGUCUC	–	-2.12 ± 0.26
GCCCAGCAAUAUUACGGGAG	-0.834 ± 0.057	-0.496 ± 0.067
GUCAAGCAAUAUUACGCUAA	-1.48 ± 0.15	-1.45 ± 0.14
AUAGAGCAAUAUUACGACAC	-0.57 ± 0.15	-0.0339 ± 0.2
CGCAAGCAAUAUUACGAGGG	-3.85 ± 0.23	-2.9 ± 0.32
GGUGAGCAAUAUUACGGGCG	-1.39 ± 0.14	-0.473 ± 0.14
ACCUAGCAAUAUUACGCGCG	-0.971 ± 0.13	0.377 ± 0.13
CUGUAGCAAUAUUACGUCUU	-4.7 ± 0.26	-2.67 ± 0.3
CGUAAGCAAUAUUACGCAAG	-1.99 ± 0.13	-1.01 ± 0.13
UUCCAGCAAUAUUACGGGAA	-2.87 ± 0.35	-2.84 ± 0.34
UUCCAGCAAUAUUACGAGAG	-1.82 ± 0.093	-0.571 ± 0.13
GGCCAGCAAUAUUACGAAAA	-2.32 ± 0.24	-2.23 ± 0.46
GGCUAGCAAUAUUACGGCCU	-3.3 ± 0.35	–
UCAUAGCAAUAUUACGGGAC	-2.96 ± 0.27	-3.97 ± 0.39
UACCAGCAAUAUUACGACUU	-0.799 ± 0.046	-0.301 ± 0.056
AGAGAGCAAUAUUACGUUAC	-2.67 ± 0.22	-2.19 ± 0.42
CAUCAGCAAUAUUACGGCAG	-0.68 ± 0.076	0.196 ± 0.09

Sequence	self-splicing fitness (ln) (30 °C)	self-splicing fitness (ln) (37 °C)
GCCAAGCAAUAUUACGACCU	-1.34 ± 0.11	-1.54 ± 0.15
AAAAAGCAAUAUUACGAUGA	-0.913 ± 0.064	-0.139 ± 0.084
UUGUAGCAAUAUUACGUAAU	-2.9 ± 0.22	-2.37 ± 0.24
AAUCAGCAAUAUUACGGCUU	0.103 ± 0.067	0.17 ± 0.077
GUCUAGCAAUAUUACGUAAU	-0.317 ± 0.1	0.597 ± 0.12
CGCUAGCAAUAUUACGGGCG	-2.95 ± 0.28	-2.74 ± 0.44
AAAUAGCAAUAUUACGCGCG	-0.988 ± 0.1	-0.952 ± 0.11
UCCUAGCAAUAUUACGCUCU	-3.33 ± 0.3	-2.67 ± 0.3
UAUGAGCAAUAUUACGCCGC	-1.9 ± 0.31	-1.02 ± 0.42
GCAUAGCAAUAUUACGCUAG	-2.24 ± 0.3	-1.82 ± 0.23
CAUAAGCAAUAUUACGGGUC	-3.31 ± 0.24	-2.97 ± 0.28
CCAAAGCAAUAUUACGUUCA	-2.59 ± 0.17	-3.38 ± 0.33
UAGUAGCAAUAUUACGGUAC	-3.85 ± 0.48	–
GUCCAGCAAUAUUACGUUUU	-1.19 ± 0.052	-0.221 ± 0.069
CUUGAGCAAUAUUACGGUCC	-0.924 ± 0.28	–
CACCAGCAAUAUUACGCAUA	-2.57 ± 0.12	-1.27 ± 0.1
AGUCAGCAAUAUUACGAGUC	-2.45 ± 0.11	-1.09 ± 0.11
GUCCAGCAAUAUUACGCUGU	-0.609 ± 0.073	-0.386 ± 0.076
UGCUAGCAAUAUUACGUGGU	-3.36 ± 0.22	-2.13 ± 0.24
UACCAGCAAUAUUACGCAUC	-1.93 ± 0.095	-1.13 ± 0.095
AGUAAGCAAUAUUACGGAAG	-2.55 ± 0.18	-2.2 ± 0.21
AAGGAGCAAUAUUACGGAAU	-3.44 ± 0.25	-2.71 ± 0.26
UCUCAGCAAUAUUACGUUAC	–	-1.86 ± 0.36
GCGCAGCAAUAUUACGUAAU	-0.192 ± 0.061	0.31 ± 0.07
UUGAAGCAAUAUUACGGCUG	0.342 ± 0.12	0.572 ± 0.12

Sequence	self-splicing fitness (ln) (30 °C)	self-splicing fitness (ln) (37 °C)
GAACAGCAAUAUUACGGCCU	-1.14 ± 0.11	-0.067 ± 0.14
CCCUAGCAAUAUUACGUGGU	-4.61 ± 0.2	-2.27 ± 0.14
GAUGAGCAAUAUUACGUAAA	-3.81 ± 0.17	-1.37 ± 0.15
GCUAAGCAAUAUUACGCUUG	-3.24 ± 0.17	-1.71 ± 0.18
UUUAAGCAAUAUUACGAAUG	-1.54 ± 0.13	-0.41 ± 0.15
UGGCAGCAAUAUUACGCUUC	-2.18 ± 0.28	–
CCGCAGCAAUAUUACGCGUC	-3 ± 0.13	-3.01 ± 0.23
AUAAAGCAAUAUUACGGGCA	-0.434 ± 0.077	-0.368 ± 0.08
GAAAAGCAAUAUUACGCCUA	-1.15 ± 0.11	-0.681 ± 0.099
UACAAGCAAUAUUACGCGAC	-3.51 ± 0.27	-1.5 ± 0.22
AAAAAGCAAUAUUACGGUGG	-2.28 ± 0.1	-1.77 ± 0.13
UAAAAGCAAUAUUACGACCA	-0.143 ± 0.092	0.711 ± 0.13
AUGAAGCAAUAUUACGACGC	0.112 ± 0.13	-0.034 ± 0.17
CGUAAGCAAUAUUACGCCAU	-3.78 ± 0.24	-2.7 ± 0.23
GCGUAGCAAUAUUACGUGCU	-2.05 ± 0.16	-2.44 ± 0.27
GACUAGCAAUAUUACGGGGA	-2.06 ± 0.11	-0.995 ± 0.1
GCAAAGCAAUAUUACGAUAC	-1.69 ± 0.1	-0.587 ± 0.14
CGAGAGCAAUAUUACGGACC	-3.73 ± 0.44	–
GGACAGCAAUAUUACGAACC	-1.23 ± 0.27	-0.895 ± 0.23
UCUGAGCAAUAUUACGCCGU	-3.13 ± 0.48	-1.56 ± 0.36
CCGGAGCAAUAUUACGGGUA	-3.53 ± 0.4	–
CUCCAGCAAUAUUACGAGGG	-3.65 ± 0.17	-2.89 ± 0.25
AUCAAGCAAUAUUACGGUUA	-1.06 ± 0.092	-0.342 ± 0.095
ACCCAGCAAUAUUACGCGUU	-0.424 ± 0.049	0.328 ± 0.066
CCCCAGCAAUAUUACGUAUG	-3.71 ± 0.15	-1.96 ± 0.13

Sequence	self-splicing fitness (ln) (30 °C)	self-splicing fitness (ln) (37 °C)
GUGAAGCAAUAUUACGGUCC	-0.351 ± 0.15	-0.0265 ± 0.18
UACUAGCAAUAUUACGCGUU	-2.33 ± 0.11	-0.827 ± 0.1
UUCGAGCAAUAUUACGUGAG	-1.12 ± 0.067	-0.0842 ± 0.11
AGCUAGCAAUAUUACGUUCU	-1.07 ± 0.062	-0.621 ± 0.08
AGGCAGCAAUAUUACGGGGG	-3.34 ± 0.21	-2.98 ± 0.23
GCGGAGCAAUAUUACGGGAU	0.0919 ± 0.27	–
CACAAGCAAUAUUACGUUCU	-2.84 ± 0.12	-2.42 ± 0.12
UUCUAGCAAUAUUACGAGUU	-2.55 ± 0.15	-1.92 ± 0.13
ACGUAGCAAUAUUACGGCAC	–	-1.73 ± 0.42
CAGAAGCAAUAUUACGAGCG	-0.175 ± 0.068	0.538 ± 0.086
AUCAAGCAAUAUUACGCUGU	-2.62 ± 0.097	-1.1 ± 0.084
AAGAAGCAAUAUUACGGUGG	-2.93 ± 0.13	-1.98 ± 0.13
CCACAGCAAUAUUACGGUGU	-2.98 ± 0.12	-3.03 ± 0.2
UGUGAGCAAUAUUACGGCGA	-1.37 ± 0.14	-1.05 ± 0.15
AUCAAGCAAUAUUACGACCA	-0.886 ± 0.13	0.0541 ± 0.14
ACAUAGCAAUAUUACGCGCU	-1.19 ± 0.095	-0.534 ± 0.098
UCUGAGCAAUAUUACGGGCG	-1.33 ± 0.17	-2.56 ± 0.22
CAAGAGCAAUAUUACGGGUA	-3.26 ± 0.4	-1.64 ± 0.28
CACGAGCAAUAUUACGAUGG	-1.81 ± 0.096	-1.45 ± 0.14
UCGUAGCAAUAUUACGCGAU	-3.29 ± 0.24	-2.36 ± 0.28
AUAGAGCAAUAUUACGAGUG	-3.25 ± 0.21	-0.0938 ± 0.18
AGUCAGCAAUAUUACGAGAC	-4.42 ± 0.39	-2.56 ± 0.24
UACCAGCAAUAUUACGGUCA	-0.0407 ± 0.07	0.125 ± 0.1
